According to the DeepSol protein solubility set:

Test: soluble on expression in E. coli; label from the status in PepcDB or PDB records

Row | Sequence | soluble on expression in E. coli
1 | MFGTNGNAGIAVTDPTKQAEIYRALESLKKDESGWKKSVDSFIGPHKPSPEEQFLLLQVIEDYLNKRYHSSSQGDVSVIRTFLLHYTKNSRSSTVDQPAFLTNKMAHIFSLVFAADFPERWSSFFNDLFFSDNINDRKVAFFYLKVLLAIDTEVVNRDIQRSKNESDRNIKIKDAMREICINEIAKSWLTIANALPEDNVIQCLVLDNIASYVDWIELDLVANDYVMPLIISKFQNPATSESATAAVCSLLEKGMPAEKKVGLTLTIMTVLRSNGLLTVNDNNDEEEVTRVGSLVNTLGLVLLDVQNKLCASSILEKEQECCVQEMAGLAEPALVVLNNEDPDLSCMCIDYIRAYCSFLLKFHPNETNFIEKVIRAGLQRYVMNDDMTVGGDGEDEVEFQEFRRELRSMLNVIGLKRPEAIINAVEPWTAEVTSGGSSIPVNRIEALLNVIFHLHEIIPSNMLQSPREGISQRAARLPIVILEGLVLDGRCPAIHVLYFELACRYERLLVLQPQPVVIPHIAAAFLDQRGISISSANVRTRIVYLFCRFVKSHKTVLGPLVSEVITRLAPLLAVSPQADTNQLLSPEDQGYIFEATATLIVFGDLTSEMKSQYVGELASTLAMKFENGLVELNTARARKADEETIQAILQFMSNIIGYSSRMSKAFNNAQSMKACNCIDIYLRLIKLYLETLSPQNAFLLESTRQFAHRLVVSMENELMPYMNGIFDKLALVSTDLDSMHHLLIFCHQTVAKYKKAMLTSGVDLGNVLAIAARASLQEQENNIPAKDDSQRALLYVQRAFVQLLYTVIASDCTPALNTTPGLLDHVLESAARLALSSDQTAQKVALSCLAKISLITPSWSARTLRVALEIPSLSHITPSDAGSTLVVHEVCATLTSLHQSDPDGFTRALRELVPNGFSDQLLSALTNLKGKNLDKQVMNLYSSLRNQSAQ | not soluble
2 | MRFTKVVGFLSVLGLAAVFPLTAQAEKAGTAGAGEWDKLGTYTYTYSSPTVYSTGGDFRVCLSGSTPFSVSLHLYEDDPGDNPDDYVGANYFSPGECHTFGSIGKFVDGSNNKAEFFVTDYSGKSKTVTFYDLEHHHHHH | not soluble
3 | MGSDKIHHHHHHMKQFQIVGIGNALVDVLSHCDDAFLAENGIAKGIMQLIDMGRAVDLYGRIGPAQEISGGSAANTIAGIAQLGGRTAYVGKVCDDQLGAIFAHDLRAQGAVYETPMAPKGGAQETGRCIILVSPDGERSMNTCLGWSEFLTPDDIDEAQMASTEWIYLEGYRFDGPESHAAFAKAIAACRGAGGRVSLTLSDPFCVERHRDAFRRMIREDVDLLFANRAEILSMYRTEDFGAALKAAAAEVAIVACTESEKGAHILADGQHWHVPALPTQIVDATGAGDLFAGAFLWGLTHGHGYETAGRMGCIAASEVISHLGARPEADLRALFRAQGVL | not soluble
4 | MGHHHHHHSHMLLTPRQDEIVALAKANGRVLVDELAARFSVTPQTIRKDLNDLCDTRVLTRIHGGALFPSGNENVKYEARRAIASVEKQAIGAAAAALIPNNSSLFINIGTTTEAVGEALADHHELMVITNNINVANRLRVFPGIEVVIAGGVVRGSDGGIVGEAAVDFIRQFKVDFAVIGVSAIDEDGALLDFDFREVKVAQAIISNARHVILVSDSLKFERTAPVRIGHLSQVHTFITDHCPVDSIRSICADHDVRLIETEARDA | soluble
5 | MGSDKIHHHHHHMPRPRRTQISLEDTPFYHCCSRVVRRAFLCGDDSYSGKNYDHRRAWVESLLFELEAVFAIDVVAFAVMSNHLHVVLRIDVETANRWSDREVLEQWHKLFKGDELTQKFAKGGLVEADEVNRLRHSIAIYRSRLCDISWFMRCLNEPIARQANQEDNCTGRFWEGRFKSQALLDEAAVLACMTYVDLNPIRAQMADTLEQSAHTSIQLRIQAALKDEQPKNLLPFIGNERDNQPIGITFSLIDYLQLVDDTGRIIRNDKLGAITENSAKLLTRLNIHHDNWLKLTTEFGKLFHGPVGTLQELTDYCEHLEKRRRHFAKCCQHLNAG | not soluble
6 | TTSMIQISDAVGYLIRPLKIFKLPVDDIVLTLSIALRFIPTMLQEISTISDAQKARGSSLNSRSIAKKIKAIVPILMPLFIASVRRAEDLATAMIMRGYSDGKNRTKFRIMK | not soluble
7 | MGSDKIHHHHHHMKIAFDVDVIKHLPITQMVRQVSEWGYKYIEQSPHPRINPFYKHPKAGRDTMQEYKRALQNYGVEISSFIVVYRWSGPDEERRRAAVTNWKRMIEIAVDMGVQVINTELSGTPDEPEICEEMWYRSMEELLPIVEREGIRIEIQSHPWDFCELNDETVDMVQSLRSDNVTYLYSAPHGFFYDKGQGDVARMLNYAGADLSHVLLADTHNHTLPCRYIMNPPGVNATIHQHIGLGEGEVDFDALFQALREMDFANRTFKVGGEAIITTSLFGYPEKMSVQAVETRERIERELLGR | not soluble
